This data set deals with Escherichia coli TOP10. Description: shrunken log2 fold change of peptide-encoding DNA abundance (4.5 h post-induction vs induction); higher = less antimicrobial activity (less host growth inhibition). The settings on record: time post-induction: 4.5 h; library: site-saturation at positions 5, 18, 19, 20.
For the sequence RRIRTRPPRLPRPRPRPEFVPRP, the “shrunken log2 fold change” value was determined as 0.107.

As to RRIRRRPPRLPRPRPRPRTHPRP, the “shrunken log2 fold change” value turned out to be 0.108. Turning to RRIRHRPPRLPRPRPRPPMMPRP, the “shrunken log2 fold change” value came to 0.03.

For RRIRFRPPRLPRPRPRPYELPRP, the “shrunken log2 fold change” value was 0.0447.

As for RRIRDRPPRLPRPRPRPKCYPRP, the “shrunken log2 fold change” value stood at 0.013. RRIRIRPPRLPRPRPRPMTTPRP: the “shrunken log2 fold change” value was determined as 0.0113. With RRIRMRPPRLPRPRPRPLISPRP, the “shrunken log2 fold change” value was 0.171.

On to RRIRCRPPRLPRPRPRPFRCPRP, for which the “shrunken log2 fold change” value is -0.0165. For the sequence RRIRFRPPRLPRPRPRPDQNPRP, the “shrunken log2 fold change” value was -0.203. On to RRIRRRPPRLPRPRPRPGEEPRP, for which the “shrunken log2 fold change” value worked out at 0.139.

As for RRIRTRPPRLPRPRPRPSLFPRP, the “shrunken log2 fold change” value was -0.248.

In the case of RRIRCRPPRLPRPRPRPTFNPRP, the “shrunken log2 fold change” value is -0.525. Under RRIRQRPPRLPRPRPRPQAMPRP stands 0.015; under RRIRGRPPRLPRPRPRPMRHPRP, 0.559. As to RRIRSRPPRLPRPRPRPTWRPRP, the “shrunken log2 fold change” value was found to be 0.424. RRIRDRPPRLPRPRPRPQCEPRP: the “shrunken log2 fold change” value was determined as 0.0364. For the sequence RRIRQRPPRLPRPRPRPDTIPRP, the “shrunken log2 fold change” value was found to be 0.0406. On to RRIRRRPPRLPRPRPRPSVIPRP, for which the “shrunken log2 fold change” value was -0.00654.

As for RRIRLRPPRLPRPRPRPTHTPRP, the “shrunken log2 fold change” value is -0.158. Then RRIRMRPPRLPRPRPRPCPMPRP, with -0.0993. RRIRWRPPRLPRPRPRPPQTPRP: the “shrunken log2 fold change” value was 0.169. Regarding RRIRIRPPRLPRPRPRPDMEPRP, the “shrunken log2 fold change” value worked out at 0.0763. RRIRVRPPRLPRPRPRPHDFPRP: the “shrunken log2 fold change” value was -0.00674.

Turning to RRIRSRPPRLPRPRPRPHTMPRP, the “shrunken log2 fold change” value was -0.163. RRIRARPPRLPRPRPRPVKWPRP: the “shrunken log2 fold change” value worked out at 3.06.

Regarding RRIRVRPPRLPRPRPRPINMPRP, the “shrunken log2 fold change” value was -0.602. Then RRIRMRPPRLPRPRPRPWKPPRP, with -0.0836; and RRIRNRPPRLPRPRPRPTNSPRP, with -0.279; and RRIRKRPPRLPRPRPRPENMPRP, with 0.11.

Turning to RRIRARPPRLPRPRPRPKLTPRP, the “shrunken log2 fold change” value was 0.167.

For RRIRQRPPRLPRPRPRPCMLPRP, the “shrunken log2 fold change” value is -0.239. As for RRIRARPPRLPRPRPRPGRLPRP, the “shrunken log2 fold change” value turned out to be 0.895.

With RRIRARPPRLPRPRPRPRFYPRP, the “shrunken log2 fold change” value was -0.0395. RRIRERPPRLPRPRPRPQIWPRP: the “shrunken log2 fold change” value amounted to 0.0182.

For RRIRGRPPRLPRPRPRPSHTPRP, the “shrunken log2 fold change” value is -0.102.

With RRIRGRPPRLPRPRPRPWNEPRP, the “shrunken log2 fold change” value is -0.14. On to RRIRNRPPRLPRPRPRPHYVPRP, for which the “shrunken log2 fold change” value is -0.121. On to RRIRDRPPRLPRPRPRPPERPRP, for which the “shrunken log2 fold change” value was 0.0665. With RRIRLRPPRLPRPRPRPDYDPRP, the “shrunken log2 fold change” value is -0.496.

On to RRIRGRPPRLPRPRPRPYTYPRP, for which the “shrunken log2 fold change” value is -0.0842. Turning to RRIRLRPPRLPRPRPRPFWWPRP, the “shrunken log2 fold change” value was 0.483. With RRIRMRPPRLPRPRPRPFITPRP, the “shrunken log2 fold change” value is -0.456. RRIRRRPPRLPRPRPRPTCRPRP: the “shrunken log2 fold change” value was 0.41.

Take RRIRNRPPRLPRPRPRPNVMPRP: the “shrunken log2 fold change” value is -0.16. RRIRTRPPRLPRPRPRPEHCPRP: the “shrunken log2 fold change” value is -0.0755.

In the case of RRIRHRPPRLPRPRPRPCQMPRP, the “shrunken log2 fold change” value is -0.0239. Take RRIRNRPPRLPRPRPRPNYGPRP: the “shrunken log2 fold change” value is -0.0781.

As to RRIRSRPPRLPRPRPRPMTCPRP, the “shrunken log2 fold change” value is 0.04. Then RRIRSRPPRLPRPRPRPFIAPRP, with -0.275; and RRIRPRPPRLPRPRPRPYMAPRP, with -1.07; and RRIRKRPPRLPRPRPRPWWVPRP, with 0.404. Consider RRIRCRPPRLPRPRPRPGQPPRP, for which the “shrunken log2 fold change” value turned out to be 0.126.

With RRIRTRPPRLPRPRPRPYQNPRP, the “shrunken log2 fold change” value is -0.3. In the case of RRIRCRPPRLPRPRPRPQNHPRP, the “shrunken log2 fold change” value is -0.612. Turning to RRIRHRPPRLPRPRPRPPGMPRP, the “shrunken log2 fold change” value worked out at 0.0769. Turning to RRIRWRPPRLPRPRPRPMFYPRP, the “shrunken log2 fold change” value is -0.395. Then RRIRYRPPRLPRPRPRPCTMPRP, with -0.347; and RRIRTRPPRLPRPRPRPLAEPRP, with 0.107; and RRIRTRPPRLPRPRPRPDLEPRP, with -0.00853.

RRIRVRPPRLPRPRPRPQGHPRP: the “shrunken log2 fold change” value is -0.177. For the sequence RRIRMRPPRLPRPRPRPTWYPRP, the “shrunken log2 fold change” value was -0.112. On to RRIRERPPRLPRPRPRPIECPRP, for which the “shrunken log2 fold change” value is -0.339. Consider RRIRGRPPRLPRPRPRPQWFPRP, for which the “shrunken log2 fold change” value came out at 0.282. Take RRIRFRPPRLPRPRPRPKFDPRP: the “shrunken log2 fold change” value is -0.0676. For the sequence RRIRKRPPRLPRPRPRPSGMPRP, the “shrunken log2 fold change” value is 0.115.

With RRIRNRPPRLPRPRPRPYSRPRP, the “shrunken log2 fold change” value was -0.00947. In the case of RRIRSRPPRLPRPRPRPQHYPRP, the “shrunken log2 fold change” value is -0.804. As to RRIRVRPPRLPRPRPRPPGPPRP, the “shrunken log2 fold change” value came out at 0.533. Take RRIRMRPPRLPRPRPRPLLWPRP: the “shrunken log2 fold change” value stood at 0.914.

Regarding RRIRHRPPRLPRPRPRPMTSPRP, the “shrunken log2 fold change” value is -0.491. On to RRIRARPPRLPRPRPRPMALPRP, for which the “shrunken log2 fold change” value worked out at 0.272. Then RRIRARPPRLPRPRPRPNQWPRP, with 0.724; and RRIRCRPPRLPRPRPRPMMVPRP, with -0.659.

Take RRIRDRPPRLPRPRPRPKTWPRP: the “shrunken log2 fold change” value came out at 0.434. Under RRIRERPPRLPRPRPRPDYLPRP stands -0.612; under RRIRARPPRLPRPRPRPFNCPRP, -0.357; under RRIRIRPPRLPRPRPRPFTIPRP, -0.246. Take RRIRCRPPRLPRPRPRPCFVPRP: the “shrunken log2 fold change” value was -0.235. On to RRIRMRPPRLPRPRPRPGRTPRP, for which the “shrunken log2 fold change” value was 0.894.

Take RRIRIRPPRLPRPRPRPVCSPRP: the “shrunken log2 fold change” value is -0.174. Consider RRIRFRPPRLPRPRPRPSLSPRP, for which the “shrunken log2 fold change” value is -0.623. Then RRIRCRPPRLPRPRPRPESNPRP, with 0.00481. Under RRIRERPPRLPRPRPRPFRTPRP stands -0.11; under RRIRQRPPRLPRPRPRPDGPPRP, 0.0029. For the sequence RRIRPRPPRLPRPRPRPAQWPRP, the “shrunken log2 fold change” value came to 0.384.

With RRIRTRPPRLPRPRPRPDREPRP, the “shrunken log2 fold change” value was -0.0115. For the sequence RRIRWRPPRLPRPRPRPKCGPRP, the “shrunken log2 fold change” value stood at 0.594.

In the case of RRIRCRPPRLPRPRPRPVHYPRP, the “shrunken log2 fold change” value was -0.0961. For RRIRPRPPRLPRPRPRPDLEPRP, the “shrunken log2 fold change” value was 0.063. Regarding RRIRCRPPRLPRPRPRPDGEPRP, the “shrunken log2 fold change” value was 0.0622. On to RRIRWRPPRLPRPRPRPSSHPRP, for which the “shrunken log2 fold change” value is -0.248. Consider RRIRQRPPRLPRPRPRPIFYPRP, for which the “shrunken log2 fold change” value is -0.418. Take RRIRARPPRLPRPRPRPCHMPRP: the “shrunken log2 fold change” value was -0.0816. Under RRIRERPPRLPRPRPRPRNTPRP stands -0.346; under RRIRFRPPRLPRPRPRPEFDPRP, -0.193; under RRIRWRPPRLPRPRPRPMSDPRP, 0.0237. For the sequence RRIRKRPPRLPRPRPRPHDQPRP, the “shrunken log2 fold change” value is 0.0273. On to RRIRFRPPRLPRPRPRPPKEPRP, for which the “shrunken log2 fold change” value came to 0.0652. With RRIRFRPPRLPRPRPRPTFTPRP, the “shrunken log2 fold change” value is -0.157. In the case of RRIRCRPPRLPRPRPRPWEAPRP, the “shrunken log2 fold change” value was found to be 0.0139.

As for RRIRGRPPRLPRPRPRPMEFPRP, the “shrunken log2 fold change” value turned out to be 0.0673.

As for RRIRVRPPRLPRPRPRPPVYPRP, the “shrunken log2 fold change” value is -0.329. As to RRIRGRPPRLPRPRPRPMHHPRP, the “shrunken log2 fold change” value is 0.533. Take RRIRWRPPRLPRPRPRPHRRPRP: the “shrunken log2 fold change” value was -0.0988. Turning to RRIRVRPPRLPRPRPRPYVSPRP, the “shrunken log2 fold change” value is -0.084. Under RRIRIRPPRLPRPRPRPSHVPRP stands -0.523; under RRIRMRPPRLPRPRPRPAWPPRP, 0.896; under RRIRFRPPRLPRPRPRPHNQPRP, -0.75.

Regarding RRIRFRPPRLPRPRPRPEREPRP, the “shrunken log2 fold change” value is 0.292. Take RRIRSRPPRLPRPRPRPNGVPRP: the “shrunken log2 fold change” value was -0.00885.

Regarding RRIRLRPPRLPRPRPRPNEQPRP, the “shrunken log2 fold change” value was -0.0127. For the sequence RRIRLRPPRLPRPRPRPQWRPRP, the “shrunken log2 fold change” value came out at 0.087.

Consider RRIRKRPPRLPRPRPRPDYRPRP, for which the “shrunken log2 fold change” value is -0.157. In the case of RRIRHRPPRLPRPRPRPEAAPRP, the “shrunken log2 fold change” value came to 0.83. Take RRIRARPPRLPRPRPRPWSDPRP: the “shrunken log2 fold change” value stood at 0.15. Regarding RRIRERPPRLPRPRPRPPTVPRP, the “shrunken log2 fold change” value was 0.166. For RRIRYRPPRLPRPRPRPMGSPRP, the “shrunken log2 fold change” value was -0.106. On to RRIRMRPPRLPRPRPRPGHMPRP, for which the “shrunken log2 fold change” value was -0.203. RRIRSRPPRLPRPRPRPNVNPRP: the “shrunken log2 fold change” value is 0.259. Regarding RRIRWRPPRLPRPRPRPFRYPRP, the “shrunken log2 fold change” value was -0.501.

With RRIRERPPRLPRPRPRPFLQPRP, the “shrunken log2 fold change” value was -0.172. Then RRIRQRPPRLPRPRPRPVSKPRP, with -0.014.

As for RRIRMRPPRLPRPRPRPATGPRP, the “shrunken log2 fold change” value was determined as 0.15. As for RRIRFRPPRLPRPRPRPTQRPRP, the “shrunken log2 fold change” value was determined as 0.98.

In the case of RRIRKRPPRLPRPRPRPDLNPRP, the “shrunken log2 fold change” value was found to be 0.332.

These data come from the supplement of paper PMC9112550, “Optimization of the antimicrobial peptide Bac7 by deep mutational scanning” (BMC Biology, 2022).
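Further: peptides expressed intracellularly from a pBAD plasmid library in pooled LB shake-flask culture, induced with 0.3% L-arabinose, DNA abundance read by NGS, three biological replicates, DESeq2 with apeglm shrinkage.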
